# Results taken from the supplement of paper PMC10724198.
# ± gives the standard deviation of the averaged measurements.
# Tested on: Saccharomyces cerevisiae
# Assay: protein stability index of tFT-peptide fusion (C-terminal peptide) (PSI (0-1 scale)); higher = more stable (slower turnover)
# Conditions: genetic background: das1 deletion; temperature: 30 C
# Method: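 MPS profiling in S. cerevisiae of the tFT-X12 degron library: putative degron peptides plus stable controls, 12 aa, fused to the C-terminus of a sfGFP-mCherry timer. Cells are FACS-sorted into 8 mCherry/sfGFP bins and deep-sequenced. PSI runs from 0 (unstable) to 1 (stable). Backgrounds are wild type, das1Δ and doa10Δ at 30 °C, and wild type, das1Δ, cdc34-1 and cdc53-1 at 37 °C; 2-3 technical replicates each.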
# 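Further: PSI is a weighted mean of sequencing reads over stability bins, variants kept only with over 10 reads, mCherry proximal and sfGFP distal, peptide attached via GGGS linker.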
row,Sequence,protein stability index
1,LIICRSFLCKVR,0.193 ± 0.029
2,LILIVVVAGSVG,0.226 ± 0.027
3,LIMIRLLYLRLI,0.269 ± 0.029
4,LINHSWLLLSVL,0.363 ± 0.038
5,LLCSLGFRFSLF,0.651 ± 0.019
6,LLFGCLIRIGCS,0.244 ± 0.048
7,LLILSVRPFVFV,0.397 ± 0.032
8,LLLALLFWPCPI,0.402 ± 0.028
9,LLLIGISFLIFY,0.208 ± 0.029
10,LLLTAIRVLRMH,0.587 ± 0.021
11,LLLVCYSTFIVA,0.254 ± 0.04
12,LLLVPLLAFSAS,0.473 ± 0.034
13,LLMFWLSIWFWG,0.245 ± 0.047
14,LLPYSLSLALRA,0.314 ± 0.048
15,LLSFSQLGYFVL,0.633 ± 0.034
16,LLSGHFRLLLAF,0.178 ± 0.02
17,LLVCLGYFLFLG,0.313 ± 0.024
18,LNVEEGGGLENV,0.631 ± 0.026
19,LPHPLPFCFSLY,0.672 ± 0.0085
20,LPLLLFYLPIIW,0.401 ± 0.034

row,Sequence,protein stability index
1,LPPFLSSLPSSP,0.66 ± 0.017
2,LPPSPPAPLSRL,0.81 ± 0.012
3,LQIKSFTSQRLA,0.6421 ± 0.0063
4,LRFMLLSFLVIL,0.349 ± 0.034
5,LRFVCALGYCVW,0.485 ± 0.027
6,LRNVPCLVFFWV,0.439 ± 0.024
7,LRSVLGWGLFLA,0.493 ± 0.027
8,LSCFCLFCLSFC,0.518 ± 0.036
9,LSFLALLLFFRI,0.363 ± 0.04
10,LSGIILGWSVSG,0.6302 ± 0.0058
11,LSLVYFAALFSF,0.409 ± 0.019
12,LSTPPLLPTPPS,0.664 ± 0.012
13,LSVMKLFVMVGP,0.37 ± 0.026
14,LSVSLFPIRYVG,0.617 ± 0.019
15,LVVIYPLLSSPV,0.43 ± 0.027
16,LWFFVGFAVYGG,0.346 ± 0.036
17,LWFRGGYLFFVV,0.439 ± 0.025
18,LWVTRVYCLLVC,0.168 ± 0.019
19,LYIQWVSRWSVQ,0.547 ± 0.035
20,LYLCLVSPVVVL,0.226 ± 0.024

row,Sequence,protein stability index
1,LYLGCVLFVLFR,0.216 ± 0.029
2,LYSVLWFCFPLV,0.446 ± 0.025
3,LYVLNILSFVCV,0.137 ± 0.013
4,MALAVRVVKCGA,0.275 ± 0.031
5,MCRMYELYVTSS,0.382 ± 0.034
6,MIILGFILYFFW,0.332 ± 0.035
7,NAPSAIQKNKKC,0.649 ± 0.036
8,NDSSWEVSLMVG,0.616 ± 0.024
9,NECLSSKWLRIC,0.631 ± 0.029
10,NFKELMEKSKYR,0.677 ± 0.019
11,NLTAIIYTLVVD,0.218 ± 0.032
12,NQIIRLIVGLLC,0.486 ± 0.017
13,PCLLRYLVHPFP,0.648 ± 0.014
14,PCPAPRPPSPSA,0.653 ± 0.0096
15,PDCRPPLVRCLL,0.827 ± 0.028
16,PFALTPPPSPRS,0.384 ± 0.024
17,PFFCFLLFCFSL,0.439 ± 0.033
18,PFFLLAGITVAC,0.177 ± 0.031
19,PFLCLPFLLVSR,0.35 ± 0.029
20,PFPTPPPIPRSP,0.686 ± 0.015
